{
  "source": "paper PMC7948501",
  "about": "“Structure of transmembrane prolyl 4-hydroxylase reveals unique organization of EF and dioxygenase domains” (The Journal of Biological Chemistry, 2020)",
  "proteins": {"B1": {"name": "soluble human transmembrane prolyl 4-hydroxylase (P4H-TM), residues 88 to 502 with an N-terminal His-tag (enzyme, UniProt Q9NXG6-1 88-502, looked up)", "chain": "DESSDPGPQHRAQGPGPEPTLGPLTRLEGIKVGHERKVQLVTDRDHFIRTLSLKPLLFEIPGFLTDEECRLIIHLAQMKGLQRSQILPTEEYEEAMSTMQVSQLDLFRLLDQNRDGHLQLREVLAQTRLGNGWWMTPESIQEMYAAIKADPDGDGVLSLQEFSNMDLRDFHKYMRSHKAESSELVRNSHHTWLYQGEGAHHIMRAIRQRVLRLTRLSPEIVELSEPLQVVRYGEGGHYHAHVDSGPVYPETICSHTKLVANESVPFETSCRYMTVLFYLNNVTGGGETVFPVADNRTYDEMSLIQDDVDLRDTRRHCDKGNLRVKPQQGTAVFWYNYLPDGQGWVGDVDDYSLHGGCLVTRGTKWIANNWINVDPSRARQALFQQEMARLAREGGTDSQPEWALDRAYRDARVEL", "modifications": "N-linked glycans at Asn368 and Asn382", "notes": "human transmembrane prolyl 4-hydroxylase (P4H-TM), isoform 1 (502 residues), residues 88-502; lacks the short cytoplasmic region and the transmembrane helix; then six histidines and residues 88-502; Calculated mass 48.3 kDa; also called soluble part of human P4H-TM; isoform 1; not shown: His6, N-terminal, kept"}},
  "biological_target": "the molecule itself",
  "test": "SEC-SAXS; 7.4 mg/ml on Superdex 200 Increase 5/150, RT; 10 mM Tris HCl pH 7.8, 0.1 M NaCl, 0.1 M glycine, 1% glycerol, with and without 2 mM CaCl2; Bayesian molecular weight estimate",
  "data": [
    {"protein": "B1", "values": [
      {"measurement": "stoichiometry N", "result": 2}
    ]}
  ]
}
